Legend:
canine PD-1-Ig = molecular target: T1, canine PD-1-Ig (canine; rabbit); test: SPR (Biacore X100): cPD-L1-His captured by anti-histidine antibody on CM5 chip, canine PD-1-Ig as analyte
T1 construct: extracellular domain;domain: Fc; also called cPD-1-Ig; cPD-1

canine CD80-Ig = molecular target: T2, canine CD80-Ig (canine; rabbit); test: SPR (Biacore X100): cPD-L1-His captured by anti-histidine antibody on CM5 chip, canine CD80-Ig as analyte
T2 construct: extracellular domain;domain: Fc; also called cCD80-Ig; cCD80

B1: canine PD-L1-His (ligand)
chain: FTITVSKDLYVVEYGGNVTMECKFPVEKQLNLFALIVYWEMEDKKIIQFVNGKEDLKVQHSSYSQRAQLLKDQLFLGKAALQITDVRLQDAGVYCCLIGYGGADYKRITLKVHAPYRNISQRISVDPVTSEHELMCQAEGYPEAEVIWTSSDHRVLSGKTTITNSNREEKLFNVTSTLNINATANEIFYCTFQRSGPEENNTAELVIPERLPVPASERTH
In the case of B1, the Kd (canine PD-1-Ig) is reported as 25.4 nM and the Kd (canine CD80-Ig) is reported as 24.3 nM.
